The target in one assay is HLA-B*53:01. Briefly: IEDB peptide-MHC binding, purified MHC/competitive/radioactivity; filed as Kd, often an IC50 or EC50 that approximates it; ≥ and ≤ were set here for values at or beyond the usual limits of such assays.
The next assay concerns the target HLA-B*35:01. Described as above.
For another assay, the target named is HLA-B*07:02. Described as above.
The target of another assay is HLA-B*54:01. The description is as above.
The next assay concerns the target HLA-B*51:01. The assay is described as above.
The target in a further assay is HLA-B*15:03. Described as above.
Another assay addresses HLA-A*30:01. The description is as above. Particulars: source organism: Vaccinia virus WR.
For a further assay, the target named is HLA-A*32:01. The description is as above.
In another assay the target is HLA-B*15:01. Described as above.
The next assay has as its target HLA-B*57:01. Briefly: IEDB peptide-MHC binding, purified MHC/direct/fluorescence; filed as Kd, often an IC50 or EC50 that approximates it; ≥ and ≤ were set here for values at or beyond the usual limits of such assays.
For the next assay, the target named is HLA-B*15:17. The assay is described as above.
For a further assay, the target named is HLA-B*58:01. Described as above.
A further assay deals with HLA-A*02:01. Briefly: IEDB peptide-MHC binding, purified MHC/competitive/fluorescence; filed as Kd, often an IC50 or EC50 that approximates it; ≥ and ≤ were set here for values at or beyond the usual limits of such assays. Particulars: source organism: Vaccinia virus Copenhagen.
A further assay has as its target HLA-A*31:01. Kind of assay: IEDB peptide-MHC binding, purified MHC/competitive/radioactivity; filed as Kd, often an IC50 or EC50 that approximates it; ≥ and ≤ were set here for values at or beyond the usual limits of such assays.
Another assay has as its target HLA-A*11:01. Described as above.
In the next assay the target is HLA-A*68:01. The assay is described as above.
A further assay deals with HLA-A*03:01. The assay is described as above.
In another assay the target is HLA-A*33:01. Described as above.
In a further assay the target is HLA-B*08:01. Described as above. Particulars: source organism: Vaccinia virus WR.
For the next assay, the target named is HLA-A*23:01. The assay is described as above. Particulars: source organism: Mammarenavirus juninense.
The next assay addresses HLA-A*24:02. The description is as above. Conditions: source organism: Mammarenavirus juninense.
The target in a further assay is HLA-A*29:02. The description is as above. Conditions: source organism: Mammarenavirus juninense.
A further assay has as its target HLA-A*24:03. Kind of assay: IEDB peptide-MHC binding, purified MHC/direct/fluorescence; filed as Kd, often an IC50 or EC50 that approximates it; ≥ and ≤ were set here for values at or beyond the usual limits of such assays. Particulars: source organism: Mammarenavirus machupoense.
The mark [1] stands for this setting: source organism: Mammarenavirus lassaense.
Where [2] appears, read: source organism: Vaccinia virus WR.
[3] abbreviates: source organism: Vaccinia virus Copenhagen.
Setting [4] is: source organism: Marburg virus - Musoke, Kenya, 1980.
Setting [5] is: source organism: Lake Victoria marburgvirus - Popp.
[6] abbreviates: source organism: SARS coronavirus Tor2.
Where [7] appears, read: source organism: Brucella melitensis.
The mark [8] stands for this setting: source organism: Mammarenavirus guanaritoense.

One may read the Kd as the equilibrium constant for the complex coming apart. For TPVEIVVDM, the Kd in the assay with HLA-B*53:01 (setting [1]) is 158 nM; with HLA-B*35:01 (setting [1]), 4.6 nM; with HLA-B*07:02 (setting [1]) it was 16700 nM; with HLA-B*54:01 (setting [1]), not below 78100 nM; with HLA-B*51:01 (setting [1]), 9820 nM.
As to KTKETNRIY, the Kd with HLA-B*15:03 (setting [2]) is 172 nM; in the assay with HLA-A*30:01, 10.7 nM.
As to LQNSVVLQF, the Kd with HLA-A*32:01 (setting [3]) was determined as 7.33 nM; with HLA-B*15:03 (setting [3]) it was 6.22 nM; with HLA-B*15:01 (setting [3]), 1.51 nM.
KPEVRIPVDL: the Kd with HLA-B*53:01 (setting [2]) was not below 42400 nM; with HLA-B*35:01 (setting [2]) it was not below 69900 nM; with HLA-B*07:02 (setting [2]) it was 235 nM; with HLA-B*54:01 (setting [2]), 14300 nM; with HLA-B*51:01 (setting [2]), not below 69600 nM.
With DPDHYKDYAF, the Kd with HLA-B*53:01 (setting [2]) is 3440 nM; with HLA-B*35:01 (setting [2]) it was 894 nM; with HLA-B*07:02 (setting [2]), not below 69600 nM; in the assay with HLA-B*54:01 (setting [2]) it was 17300 nM; in the assay with HLA-B*51:01 (setting [2]), not below 69600 nM.
As to FPAIFSAEVL, the Kd was 332 nM with HLA-B*53:01 (setting [1]); 55.7 nM with HLA-B*35:01 (setting [1]); 1380 nM with HLA-B*07:02 (setting [1]); 523 nM in the assay with HLA-B*54:01 (setting [1]); 9910 nM with HLA-B*51:01 (setting [1]).
On to FYSSFVQTF, for which, in the assay with HLA-B*15:03 (setting [2]), the Kd amounted to 38.8 nM.
With SSNAKNSEW, the Kd with HLA-B*57:01 (setting [4]) turned out to be 135 nM; with HLA-B*15:17 (setting [4]), 2.7 nM; with HLA-B*58:01 (setting [4]) it was 69.9 nM.
On to KSPDVHEDF, for which the Kd was 566 nM in the assay with HLA-B*57:01 (setting [5]), not below 20000 nM with HLA-B*15:17 (setting [5]) and 921 nM with HLA-B*58:01 (setting [5]).
Turning to MTVVSAVHF, the Kd in the assay with HLA-A*32:01 (setting [2]) was 1940 nM; with HLA-B*15:03 (setting [2]), 278 nM.
With FPYVMGDVEL, the equilibrium dissociation constant (Kd) is 46.9 nM with HLA-B*53:01 (setting [1]); 11.1 nM in the assay with HLA-B*35:01 (setting [1]); 930 nM with HLA-B*07:02 (setting [1]); 487 nM in the assay with HLA-B*54:01 (setting [1]); 304 nM with HLA-B*51:01 (setting [1]).
Turning to FLIVSLCPT, the Kd in the assay with HLA-A*02:01 is 0.3 nM; with HLA-B*53:01 (setting [3]) it was 6210 nM; with HLA-B*35:01 (setting [3]), 16000 nM; with HLA-A*31:01 (setting [3]), 3230 nM; in the assay with HLA-A*11:01 (setting [3]) it was not below 48100 nM; in the assay with HLA-A*68:01 (setting [3]), 5310 nM. The Kd with HLA-A*03:01 (setting [3]) was 2590 nM; with HLA-B*07:02 (setting [3]) it was 12000 nM; in the assay with HLA-B*54:01 (setting [3]), 359 nM; with HLA-B*51:01 (setting [3]), not below 28600 nM; with HLA-A*33:01 (setting [3]), 6550 nM.
For the sequence DPRLVAEHRF, the Kd in the assay with HLA-B*53:01 (setting [2]) is 1210 nM; with HLA-B*35:01 (setting [2]), 11700 nM; in the assay with HLA-B*07:02 (setting [2]), not below 21400 nM; in the assay with HLA-B*54:01 (setting [2]) it was not below 69900 nM; with HLA-B*51:01 (setting [2]) it was not below 69600 nM.
For APNAKEEIL, the Kd in the assay with HLA-B*53:01 (setting [6]) was 18500 nM; with HLA-B*35:01 (setting [6]), 19200 nM; with HLA-B*07:02 (setting [6]), 71.2 nM; with HLA-B*54:01 (setting [6]), not below 23300 nM; in the assay with HLA-B*51:01 (setting [6]) it was 2650 nM.
As for RAYSVPETF, the Kd was 41.8 nM in the assay with HLA-B*57:01 (setting [7]), not above 1 nM with HLA-B*15:17 (setting [7]) and 14.5 nM with HLA-B*58:01 (setting [7]).
Turning to FAAMIIRSF, the Kd in the assay with HLA-B*15:03 (setting [2]) is 1.33 nM.
With ILMIFISSF, the values for the Kd in the assay with HLA-A*32:01 (setting [2]) and with HLA-B*15:03 (setting [2]) were 86.7 nM and 11.9 nM, respectively.
FQTVNFNNA: the Kd is not below 50900 nM with HLA-A*32:01 (setting [2]); 305 nM with HLA-B*15:03 (setting [2]); 115 nM in the assay with HLA-A*30:01; 16000 nM with HLA-B*08:01; 8180 nM in the assay with HLA-B*15:01 (setting [2]).
Regarding ILMIFISSFL, the Kd was determined as 1250 nM with HLA-B*53:01 (setting [2]); 3050 nM in the assay with HLA-B*35:01 (setting [2]); 625 nM with HLA-A*31:01 (setting [2]); 1780 nM with HLA-A*11:01 (setting [2]); 989 nM with HLA-A*68:01 (setting [2]); 397 nM with HLA-A*03:01 (setting [2]). For the same sequence, the Kd was determined as 16800 nM with HLA-B*07:02 (setting [2]), 1500 nM with HLA-B*54:01 (setting [2]), 4910 nM with HLA-B*51:01 (setting [2]) and 966 nM with HLA-A*33:01 (setting [2]).
For the sequence CPFLFLIVL, the dissociation constant (Kd) in the assay with HLA-B*53:01 (setting [1]) is 14100 nM; with HLA-B*35:01 (setting [1]) it was 414 nM; in the assay with HLA-B*07:02 (setting [1]), not below 77400 nM; in the assay with HLA-B*54:01 (setting [1]), 1520 nM; in the assay with HLA-B*51:01 (setting [1]), not below 54700 nM.
As to NPLVITTSV, the Kd with HLA-B*53:01 (setting [8]) came out at 14200 nM; with HLA-B*35:01 (setting [8]) it was 5530 nM; with HLA-B*07:02 (setting [8]), 1330 nM; with HLA-B*54:01 (setting [8]), 79.8 nM; with HLA-B*51:01 (setting [8]) it was 381 nM.
As to LPSLIKTILA, the Kd in the assay with HLA-B*53:01 (setting [2]) came out at 1960 nM; with HLA-B*35:01 (setting [2]), 2230 nM; with HLA-B*07:02 (setting [2]), 1520 nM; in the assay with HLA-B*54:01 (setting [2]), 1.54 nM; with HLA-B*51:01 (setting [2]), 11000 nM.
For LYTVKYPNL, the Kd was 230 nM in the assay with HLA-A*23:01, 2430 nM with HLA-A*24:02, not below 23500 nM with HLA-A*29:02 and 30.1 nM with HLA-A*24:03.
For the sequence SATYATVPF, the Kd in the assay with HLA-B*15:03 (setting [3]) turned out to be 12 nM.
As for LPVYFGSVF, the Kd in the assay with HLA-B*15:03 (setting [2]) worked out at 123 nM.
For the sequence IQHNFTQIA, the Kd with HLA-B*15:03 (setting [2]) is 0.251 nM.
Regarding DPTFQLLNMI, the equilibrium dissociation constant (Kd) in the assay with HLA-B*53:01 (setting [2]) is 12600 nM; with HLA-B*35:01 (setting [2]), not below 69900 nM; with HLA-B*07:02 (setting [2]), not below 69600 nM; with HLA-B*54:01 (setting [2]), not below 27100 nM; with HLA-B*51:01 (setting [2]), 4990 nM.
Regarding VLFLQQSIF, the Kd in the assay with HLA-B*15:03 (setting [2]) stood at 0.61 nM.
Consider LSVPAAIMM, for which the Kd with HLA-B*15:03 (setting [2]) turned out to be 68.5 nM.
VPDIKLDAVL: the Kd with HLA-B*53:01 (setting [2]) turned out to be 134 nM; in the assay with HLA-B*35:01 (setting [2]) it was 140 nM; in the assay with HLA-B*07:02 (setting [2]) it was 4.94 nM; with HLA-B*54:01 (setting [2]) it was 1620 nM; with HLA-B*51:01 (setting [2]), 335 nM.
SPLFLIVAAL: the Kd is 1040 nM in the assay with HLA-B*53:01 (setting [6]); 3330 nM with HLA-B*35:01 (setting [6]); 248 nM with HLA-B*07:02 (setting [6]); 949 nM with HLA-B*54:01 (setting [6]); 970 nM with HLA-B*51:01 (setting [6]).
As to KWKYENPCK, the Kd with HLA-A*32:01 (setting [2]) was not below 59000 nM; with HLA-B*15:03 (setting [2]) it was 296 nM; with HLA-A*30:01, 15 nM; with HLA-B*08:01, not below 50900 nM; with HLA-B*15:01 (setting [2]), not below 78100 nM.
For the sequence KAGVRGWFL, the values for the Kd with HLA-B*57:01 (setting [7]), with HLA-B*15:17 (setting [7]) and with HLA-B*58:01 (setting [7]) were 71.5 nM, 2280 nM and 225 nM, respectively.
Regarding KSSLNISGY, the dissociation constant (Kd) is 574 nM in the assay with HLA-B*57:01 (setting [1]), 1.6 nM with HLA-B*15:17 (setting [1]) and 37.7 nM with HLA-B*58:01 (setting [1]).
NLYSFTIVF: the Kd with HLA-B*15:03 (setting [3]) is 31.2 nM.
For the sequence FQRKPFNNI, the Kd with HLA-B*15:03 (setting [2]) was 8.9 nM.

(Values after the Immune Epitope Database (IEDB).)
